In US20100229252, “MEGANUCLEASE VARIANTS CLEAVING A DNA TARGET SEQUENCE FROM THE HUMAN HEMOGLOBIN BETA GENE AND USES THEREOF” (CELLECTIS, published 2010):
Residue numbers refer to the chain shown, from its start.

Columns and labels:
Assay in all cases: cell_activity; CHO extrachromosomal LacZ assay
[1] = target: T1, I-CreI heterodimer HBB8.3_B3 / HBB8.4_B4 (Chlamydomonas reinhardtii, UniProt P05725;P05725 SEQ:1-167,SEQ:1-167)
T1 chain 1: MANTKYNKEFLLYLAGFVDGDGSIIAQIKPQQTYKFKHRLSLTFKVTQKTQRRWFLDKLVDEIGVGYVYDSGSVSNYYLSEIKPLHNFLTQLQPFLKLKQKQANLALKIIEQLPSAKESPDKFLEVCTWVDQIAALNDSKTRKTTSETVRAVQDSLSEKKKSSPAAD
T1 chain 2: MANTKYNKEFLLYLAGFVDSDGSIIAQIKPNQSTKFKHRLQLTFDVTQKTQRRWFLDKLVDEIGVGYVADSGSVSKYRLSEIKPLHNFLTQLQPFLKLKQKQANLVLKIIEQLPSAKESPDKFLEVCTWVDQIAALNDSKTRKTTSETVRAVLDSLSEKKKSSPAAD

[2] = target: T2, I-CreI heterodimer HBB8.3_J3 / HBB8.4_B4 (Chlamydomonas reinhardtii, UniProt P05725;P05725 SEQ:1-167,SEQ:1-167)
T2 chain 1: T1 chain 1 with K45Q, Y69A, Y78R, F88L, A106V, Q153L
T2 chain 2: T1 chain 2

[3] = target: T3, I-CreI heterodimer HBB8.3_E3 / HBB8.4_A4 (Chlamydomonas reinhardtii, UniProt P05725;P05725 SEQ:1-167,SEQ:1-167)
T3 chain 1: T1 chain 1 with G20S, V65I, A106V, Q153L
T3 chain 2: T1 chain 2 with S20G, T34V, R39H, F88L, Q132R

[4] = target: T4, I-CreI heterodimer HBB8.3_J3 / HBB8.4_C4 (Chlamydomonas reinhardtii, UniProt P05725;P05725 SEQ:1-167,SEQ:1-167)
T4 chain 1: T1 chain 1 with K45Q, Y69A, Y78R, F88L, A106V, Q153L
T4 chain 2: T1 chain 2 with T34V

[5] = target: T5, I-CreI heterodimer HBB8.3_H3 / HBB8.4_D4 (Chlamydomonas reinhardtii, UniProt P05725;P05725 SEQ:1-167,SEQ:1-167)
T5 chain 1: T1 chain 1 with G20S, Q31N, T33S, Y34G, R39K, A106V, I133V, Q153L
T5 chain 2: T1 chain 2 with S20G, T34V, R39H, F88L

[6] = target: T6, I-CreI heterodimer HBB8.3_B3 / HBB8.4_C4 (Chlamydomonas reinhardtii, UniProt P05725;P05725 SEQ:1-167,SEQ:1-167)
T6 chain 1: T1 chain 1
T6 chain 2: T1 chain 2 with T34V

B1: HBB8 (dsDNA)
DNA 1: CTGACTCCTGTGGAGAAGTCTG
DNA 2: CAGACTTCTCCACAGGAGTCAG
activity [1]: 2.29 absorbance units | activity [2]: 2.47 absorbance units | activity [3]: 2.52 absorbance units | activity [4]: 2.21 absorbance units | activity [5]: 2.1 absorbance units | activity [6]: 2.32 absorbance units

B2: HBB6 (dsDNA)
DNA 1: CTGACTCCTGAGGAGAAGTCTG
DNA 2: CAGACTTCTCCTCAGGAGTCAG
activity [1]: 1.21 absorbance units | activity [2]: 1.75 absorbance units | activity [3]: 2.04 absorbance units | activity [4]: 1.88 absorbance units | activity [5]: 1.84 absorbance units | activity [6]: 1.86 absorbance units
